{
  "source": "patent US7438916B2",
  "about": "“Therapeutic target for protozoal diseases” (priority 2005, dated 2008)",
  "molecules": {"B1": {"name": "FRAP2: truncated FRAP containing only amino acids 1-87, SEQ ID NO: 25 (protein, listed as Plasmodium falciparum)", "chain": "MKNRFYYNLIIKRLYTRSGGLRKPQKVTNDPESINRKVYWCFEHKPVKRTIINLIYSHNELKIFSNLLNHPTVGSSLIHELSLDGPY"}, "B2": {"name": "FRAP from rodent malaria parasite P. yoelii: P. yoelii FRAP ortholog, SEQ ID NO: 9 (protein, listed as Plasmodium yoelii)", "chain": "MKKKLYNLVLKRSYTRSGGLRKPQKVTNDPESINRKVYWCFEHKPVRRTVINLIFSHNELKNFSTLLRNTNASSSLIHELSLEGPYTGFLPSDEALNLLSTNSLNKLYKDDNKMSEFVLNHFTKGLWMYRDLYGSSYQPWLMYNEKREAPEKIQTLVNNDIIVKIEGEFKNCDHSIYLNEAKIIRPNMKCHNGIIHIIDKPIIF"}},
  "key": {"FRAP": {"molecular_target": "T1, FRAP (Plasmodium falciparum, UniProt Q8IL04)", "T1 construct": "The activity requires the complete protein as two truncated variants of FRAP; made in house; host or cells: E. coli BL21", "T1 sequence (Q8IL04 whole entry, the tested form may be a part)": "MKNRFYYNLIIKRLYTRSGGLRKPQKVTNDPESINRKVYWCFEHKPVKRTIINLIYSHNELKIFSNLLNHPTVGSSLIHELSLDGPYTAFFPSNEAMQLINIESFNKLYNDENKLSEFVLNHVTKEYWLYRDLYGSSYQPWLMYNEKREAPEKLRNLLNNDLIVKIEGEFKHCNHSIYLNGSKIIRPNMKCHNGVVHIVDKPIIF", "assay": "Inhibition of FRAP-mediated hemozoin formation", "type": "biochemical, P. falciparum", "conditions": "different concentrations, FIG. 14", "protocol": "FIG. 14. Inhibition of FRAP-mediated hemozoin formation by Chloroquine. Hemozoin formation was investigated in the absence or presence of different concentrations of chloroquine, an antimalarial drug with high affinity for heme.\n(§1) The standard assay contained in a total volume of 1.0 ml: 500 mM sodium acetate pH 5.2, 300 nmol/ml hemin-Cl (as substrate) and 500 pmol/ml FRAP, as the source of heme polymerase activity. The amount of FRAP added was chosen such that 50% of the substrate was converted into product (insoluble hemozoin) during the assay. The reaction was initiated by protein addition and allowed to proceed for 16 hours at 37 degree. The reaction was terminated by adding 0.01 ml of 10% SDS solution. The reaction tube was centrifuged at 13,000 rpm for 15 minutes at 23 degrees and the supernatant was carefully removed. The pellet, which contained the polymerized and insoluble hemozoin, was resuspended in 1 ml of 0.1 M sodium bicarbonate pH 9.1 containing 2.5% SDS. […] The pellet obtained after final washing was dissolved in 0.3 ml of 0.1 N NaOH and the absorbance of the solution was measured at 405 nm using a spectrophotometer. Amount of heme polymerized was calculated utilizing a standard curve, prepared by dissolving known amounts of commercially available beta-hematin in 0.1 N NaOH. […]"}, "HepG2 cells [1]": {"system": "HepG2 cells", "assay": "Liver cell binding inhibition assay with glycosaminoglycans", "type": "cell-based, human", "conditions": "FIG. 6", "protocol": "Liver Cell binding assay: The binding of proteins was assayed on HepG2 cells as described previously (1, 31). Briefly, cells were plated at a density of 25,000 cells/well, in a 96 well plate, 36 hours before the start of the experiment. The cells were fixed with paraformaldehyde, blocked with 1% BSA, followed by the addition of equimolar concentrations of recombinant proteins. Bound protein was detected using anti-polyhistidine tag monoclonal antibody (1:10,000) and anti-mouse antibody conjugated to alkaline phosphatase (1:2000). Amount of bound protein was detected by using 4-methylumbelliferyl phosphate, a fluorescent substrate, and measurement of fluorescence using a fluorescent plate reader (Molecular Devices, CA) with excitation and emission set at 350 nm and 460 nm respectively. Results are shown as mean±standard deviation of mean of a representative experiment performed in triplicate. Binding inhibition assays were performed by combining the recombinant proteins with increasing amounts of glycosaminoglycans and incubating at 37° C. for 15 min. For enzyme treatment, cells were incubated with different concentrations of Heparinase I or Chondroitinase ABC for 90 minutes at 37° C. as previously described (31), before the addition of proteins. The bound protein was assayed as described above. […]"}, "HepG2 cells [2]": {"system": "HepG2 cells", "assay": "Liver cell binding assay", "type": "cell-based, human", "conditions": "FIG. 5", "protocol": "(§2) Liver Cell binding assay: The binding of proteins was assayed on HepG2 cells as described previously (1, 31). Briefly, cells were plated at a density of 25,000 cells/well, in a 96 well plate, 36 hours before the start of the experiment. The cells were fixed with paraformaldehyde, blocked with 1% BSA, followed by the addition of equimolar concentrations of recombinant proteins. Bound protein was detected using anti-polyhistidine tag monoclonal antibody (1:10,000) and anti-mouse antibody conjugated to alkaline phosphatase (1:2000). Amount of bound protein was detected by using 4-methylumbelliferyl phosphate, a fluorescent substrate, and measurement of fluorescence using a fluorescent plate reader (Molecular Devices, CA) with excitation and emission set at 350 nm and 460 nm respectively. Results are shown as mean±standard deviation of mean of a representative experiment performed in triplicate. Binding inhibition assays were performed by combining the recombinant proteins with increasing amounts of glycosaminoglycans and incubating at 37° C. for 15 min. For enzyme treatment, cells were incubated with different concentrations of Heparinase I or Chondroitinase ABC for 90 minutes at 37° C. as previously described (31), before the addition of proteins. The bound protein was assayed as described above.\nTherefore, binding activity was probed using a polyhistidine tag monoclonal antibody. […]"}, "HepG2 cells [3]": {"system": "HepG2 cells", "assay": "Binding to liver cells pretreated with glycosaminoglycan cleaving enzyme", "type": "cell-based, human", "conditions": "for Inhibition of Binding (%): 100 nM protein", "protocol": "as §2\nThe involvement of HSPG as a receptor was further verified by evaluating the binding of the protein on liver cells that were pretreated with specific glycosaminoglycan-cleaving enzymes. Cells were pre-treated with heparinase I or chondroitinase ABC followed by the evaluation of binding activity of FRAP and FRAP2. Heparinase I selectively removes heparan sulfate while chondroitinase ABC cleaves chondroitin sulfate A, B and C type sugars from the liver cell surface. Both, FRAP and FRAP2 lost 50% of their binding activity on heparinase I treated cells (Table 4) confirming the involvement of a heparin-based receptor on the liver cell surface."}, "[4]": {"system": "P. falciparum sporozoites", "assay": "Sporozoite invasion assay", "type": "cell-based, P. falciparum (strain NF54)", "conditions": "versus culture medium", "protocol": "Sporozoite Invasion Assay: Invasion assay was performed with HepG2 (Human hepatoma) cells as previously described (31). Briefly, HepG2 cells were plated (50,000 cells/0.3 ml) and incubated overnight at 37° C. in a CO2 incubator. Next day, medium was removed and 50 μl of diluted FRAP proteins (final concentrations: 20 and 10 μg/ml) or anti-FRAP2 antibodies (40 μg/ml final concentration) were added per well. Anti CS monoclonal antibody NFS1 was used at a final concentration of 100 μg/ml. All protein concentrations and serum dilutions were evaluated in triplicate. This was immediately followed by the addition of 20,000 sporozoites in 50 μl of medium to each well. P. falciparum (strain NF54) sporozoites were obtained from the salivary glands of An. stephensi mosquitoes as described by Ozaki (33). The sporozoites were allowed to invade liver cells for three hours followed by the washing of cells with PBS at pH 7.4. Subsequently, the cells were fixed with cold methanol. Sporozoites were visualized by immunostaining using NFS1 as primary antibody and anti-mouse IgG-peroxidase conjugate. The slides were mounted with Paramount and only intracellular sporozoites were counted as described (31). Percentage inhibition of invasion was calculated with the following formula: [(Control-test)/control]×100 Results"}, "heme": {"system": "heme", "assay": "FRAP-mediated hemozoin formation assay", "type": "biochemical", "conditions": "result in words", "protocol": "FIG. 8. FRAP-mediated neutralization of toxic heme into non-toxic Hemozoin. 500 pmoles of each of the protein was incubated with different concentrations of free heme at 37° C. for 16 hours, under acidic conditions (500 mM Sodium acetate pH 5.2). After 16 hours, free heme was removed by washing and the insoluble pellet representing hemozoin was solubalized in sodium hydroxide and estimated using a spectrophotometer.\nas §1, with “degree.” for “degree. The reaction was terminated by adding 0.01 ml of 10% SDS solution. The reaction tube was centrifuged at 13,000 rpm for 15 minutes at 23 degrees and the supernatant was carefully removed. The pellet, which contained the polymerized and insoluble hemozoin, was resuspended in 1 ml of 0.1 M sodium bicarbonate pH 9.1 containing 2.5% SDS.”\nFurthermore, the hemozoin formation was also evaluated with truncated variants and point mutants of FRAP to not only describe its structural requirements, but also pin point the residues that are involved in the polymerization process."}},
  "data": [
    {"molecule": "CCN(CC)CCCC(C)Nc1ccnc2cc(Cl)ccc12", "note": "(centres unmarked) [Chloroquine, chloroquine]", "values": [
      {"measurement": "inhibition of FRAP-mediated hemozoin formation", "setting": "FRAP", "value": "inhibited heme polymerization in a dose dependent manner"},
      {"measurement": "inhibition of FRAP-mediated hemozoin formation", "setting": "FRAP; listed as chloroquine", "value": "effectively inhibited"}
    ]},
    {"molecule": "chondroitin sulfate A [reference compound]", "values": [
      {"measurement": "inhibition of FRAP and FRAP2 binding to liver cells by the glycosaminoglycan", "setting": "HepG2 cells [1]; highest concentration evaluated", "value": "no inhibition"}
    ]},
    {"molecule": "B1", "values": [
      {"measurement": "loss of binding activity in comparison to the full length protein", "setting": "HepG2 cells [2]", "value": 50, "unit": "%"},
      {"measurement": "binding on liver cells", "setting": "HepG2 cells [2]; five concentrations of recombinant protein", "value": "only half the strength"},
      {"measurement": "Inhibition of Binding (%)", "setting": "HepG2 cells [3]; cells pretreated with Heparinase I 1.25 U/ml for 90 minutes", "value": "42.3 ± 10.4", "unit": "%"},
      {"measurement": "Inhibition of Binding (%)", "setting": "HepG2 cells [3]; cells pretreated with Heparinase I 2.50 U/ml for 90 minutes", "value": "41.4 ± 1.5", "unit": "%"},
      {"measurement": "Inhibition of Binding (%)", "setting": "HepG2 cells [3]; cells pretreated with Heparinase I 5.00 U/ml for 90 minutes", "value": "49.4 ± 9.2", "unit": "%"},
      {"measurement": "loss of binding activity on heparinase I treated cells", "setting": "HepG2 cells [3]; text summary of Table 4", "value": 50, "unit": "%"},
      {"measurement": "reduction of binding activity in the presence of free heparin", "setting": "HepG2 cells [1]; HepG2 cells", "value": 60, "unit": "%"},
      {"measurement": "% Inhibition of invasion of HepG2 cells by P. falciparum sporozoites", "setting": "[4]; 10 μg/ml", "value": "88.1 ± 4.6", "unit": "%"},
      {"measurement": "% Inhibition of invasion of HepG2 cells by P. falciparum sporozoites", "setting": "[4]; 20 μg/ml", "value": 92.4, "unit": "%"},
      {"measurement": "hemozoin formation (heme polymerization) activity", "setting": "heme", "value": "did not show any hemozoin formation"}
    ]},
    {"molecule": "B2", "values": [
      {"measurement": "hemozoin formation (heme polymerization) activity", "setting": "heme", "value": "demonstrated"}
    ]}
  ]
}
